Measured values: IntAct's records for PubMed 21968187

B1: Amyloid beta precursor protein binding family B member 1 (Homo sapiens), O00213 (parent)
chain: MSVPSSLSQSAINANSHGGPALSLPLPLHAAHNQLLNAKLQATAVGPKDLRSAMGEGGGPEPGPANAKWLKEGQNQLRRAATAHRDQNRNVTLTLAEEASQEPEMAPLGPKGLIHLYSELELSAHNAANRGLRGPGLIISTQEQGPDEGEEKAAGEAEEEEEDDDDEEEEEDLSSPPGLPEPLESVEAPPRPQALTDGPREHSKSASLLFGMRNSAASDEDSSWATLSQGSPSYGSPEDTDSFWNPNAFETDSDLPAGWMRVQDTSGTYYWHIPTGTTQWEPPGRASPSQGSSPQEESQLTWTGFAHGEGFEDGEFWKDEPSDEAPMELGLKEPEEGTLTFPAQSLSPEPLPQEEEKLPPRNTNPGIKCFAVRSLGWVEMTEEELAPGRSSVAVNNCIRQLSYHKNNLHDPMSGGWGEGKDLLLQLEDETLKLVEPQSQALLHAQPIISIRVWGVGRDSGRERDFAYVARDKLTQMLKCHVFRCEAPAKNIATSLHEICSKIMAERRNARCLVNGLSLDHSKLVDVPFQVEFPAPKNELVQKFQVYYLGNVPVAKPVGVDVINGALESVLSSSSREQWTPSHVSVAPATLTILHQQTEAVLGECRVRFLSFLAVGRDVHTFAFIMAAGPASFCCHMFWCEPNAASLSEAVQAACMLRYQKCLDARSQASTSCLPAPPAESVARRVGWTVRRGVQSLWGSLKPKRLGAHTP

Variants of: B1
Conditions: with lrp1_human LRP1, Q07954
Sequence of lrp1_human LRP1, Q07954 (Q07954 whole entry): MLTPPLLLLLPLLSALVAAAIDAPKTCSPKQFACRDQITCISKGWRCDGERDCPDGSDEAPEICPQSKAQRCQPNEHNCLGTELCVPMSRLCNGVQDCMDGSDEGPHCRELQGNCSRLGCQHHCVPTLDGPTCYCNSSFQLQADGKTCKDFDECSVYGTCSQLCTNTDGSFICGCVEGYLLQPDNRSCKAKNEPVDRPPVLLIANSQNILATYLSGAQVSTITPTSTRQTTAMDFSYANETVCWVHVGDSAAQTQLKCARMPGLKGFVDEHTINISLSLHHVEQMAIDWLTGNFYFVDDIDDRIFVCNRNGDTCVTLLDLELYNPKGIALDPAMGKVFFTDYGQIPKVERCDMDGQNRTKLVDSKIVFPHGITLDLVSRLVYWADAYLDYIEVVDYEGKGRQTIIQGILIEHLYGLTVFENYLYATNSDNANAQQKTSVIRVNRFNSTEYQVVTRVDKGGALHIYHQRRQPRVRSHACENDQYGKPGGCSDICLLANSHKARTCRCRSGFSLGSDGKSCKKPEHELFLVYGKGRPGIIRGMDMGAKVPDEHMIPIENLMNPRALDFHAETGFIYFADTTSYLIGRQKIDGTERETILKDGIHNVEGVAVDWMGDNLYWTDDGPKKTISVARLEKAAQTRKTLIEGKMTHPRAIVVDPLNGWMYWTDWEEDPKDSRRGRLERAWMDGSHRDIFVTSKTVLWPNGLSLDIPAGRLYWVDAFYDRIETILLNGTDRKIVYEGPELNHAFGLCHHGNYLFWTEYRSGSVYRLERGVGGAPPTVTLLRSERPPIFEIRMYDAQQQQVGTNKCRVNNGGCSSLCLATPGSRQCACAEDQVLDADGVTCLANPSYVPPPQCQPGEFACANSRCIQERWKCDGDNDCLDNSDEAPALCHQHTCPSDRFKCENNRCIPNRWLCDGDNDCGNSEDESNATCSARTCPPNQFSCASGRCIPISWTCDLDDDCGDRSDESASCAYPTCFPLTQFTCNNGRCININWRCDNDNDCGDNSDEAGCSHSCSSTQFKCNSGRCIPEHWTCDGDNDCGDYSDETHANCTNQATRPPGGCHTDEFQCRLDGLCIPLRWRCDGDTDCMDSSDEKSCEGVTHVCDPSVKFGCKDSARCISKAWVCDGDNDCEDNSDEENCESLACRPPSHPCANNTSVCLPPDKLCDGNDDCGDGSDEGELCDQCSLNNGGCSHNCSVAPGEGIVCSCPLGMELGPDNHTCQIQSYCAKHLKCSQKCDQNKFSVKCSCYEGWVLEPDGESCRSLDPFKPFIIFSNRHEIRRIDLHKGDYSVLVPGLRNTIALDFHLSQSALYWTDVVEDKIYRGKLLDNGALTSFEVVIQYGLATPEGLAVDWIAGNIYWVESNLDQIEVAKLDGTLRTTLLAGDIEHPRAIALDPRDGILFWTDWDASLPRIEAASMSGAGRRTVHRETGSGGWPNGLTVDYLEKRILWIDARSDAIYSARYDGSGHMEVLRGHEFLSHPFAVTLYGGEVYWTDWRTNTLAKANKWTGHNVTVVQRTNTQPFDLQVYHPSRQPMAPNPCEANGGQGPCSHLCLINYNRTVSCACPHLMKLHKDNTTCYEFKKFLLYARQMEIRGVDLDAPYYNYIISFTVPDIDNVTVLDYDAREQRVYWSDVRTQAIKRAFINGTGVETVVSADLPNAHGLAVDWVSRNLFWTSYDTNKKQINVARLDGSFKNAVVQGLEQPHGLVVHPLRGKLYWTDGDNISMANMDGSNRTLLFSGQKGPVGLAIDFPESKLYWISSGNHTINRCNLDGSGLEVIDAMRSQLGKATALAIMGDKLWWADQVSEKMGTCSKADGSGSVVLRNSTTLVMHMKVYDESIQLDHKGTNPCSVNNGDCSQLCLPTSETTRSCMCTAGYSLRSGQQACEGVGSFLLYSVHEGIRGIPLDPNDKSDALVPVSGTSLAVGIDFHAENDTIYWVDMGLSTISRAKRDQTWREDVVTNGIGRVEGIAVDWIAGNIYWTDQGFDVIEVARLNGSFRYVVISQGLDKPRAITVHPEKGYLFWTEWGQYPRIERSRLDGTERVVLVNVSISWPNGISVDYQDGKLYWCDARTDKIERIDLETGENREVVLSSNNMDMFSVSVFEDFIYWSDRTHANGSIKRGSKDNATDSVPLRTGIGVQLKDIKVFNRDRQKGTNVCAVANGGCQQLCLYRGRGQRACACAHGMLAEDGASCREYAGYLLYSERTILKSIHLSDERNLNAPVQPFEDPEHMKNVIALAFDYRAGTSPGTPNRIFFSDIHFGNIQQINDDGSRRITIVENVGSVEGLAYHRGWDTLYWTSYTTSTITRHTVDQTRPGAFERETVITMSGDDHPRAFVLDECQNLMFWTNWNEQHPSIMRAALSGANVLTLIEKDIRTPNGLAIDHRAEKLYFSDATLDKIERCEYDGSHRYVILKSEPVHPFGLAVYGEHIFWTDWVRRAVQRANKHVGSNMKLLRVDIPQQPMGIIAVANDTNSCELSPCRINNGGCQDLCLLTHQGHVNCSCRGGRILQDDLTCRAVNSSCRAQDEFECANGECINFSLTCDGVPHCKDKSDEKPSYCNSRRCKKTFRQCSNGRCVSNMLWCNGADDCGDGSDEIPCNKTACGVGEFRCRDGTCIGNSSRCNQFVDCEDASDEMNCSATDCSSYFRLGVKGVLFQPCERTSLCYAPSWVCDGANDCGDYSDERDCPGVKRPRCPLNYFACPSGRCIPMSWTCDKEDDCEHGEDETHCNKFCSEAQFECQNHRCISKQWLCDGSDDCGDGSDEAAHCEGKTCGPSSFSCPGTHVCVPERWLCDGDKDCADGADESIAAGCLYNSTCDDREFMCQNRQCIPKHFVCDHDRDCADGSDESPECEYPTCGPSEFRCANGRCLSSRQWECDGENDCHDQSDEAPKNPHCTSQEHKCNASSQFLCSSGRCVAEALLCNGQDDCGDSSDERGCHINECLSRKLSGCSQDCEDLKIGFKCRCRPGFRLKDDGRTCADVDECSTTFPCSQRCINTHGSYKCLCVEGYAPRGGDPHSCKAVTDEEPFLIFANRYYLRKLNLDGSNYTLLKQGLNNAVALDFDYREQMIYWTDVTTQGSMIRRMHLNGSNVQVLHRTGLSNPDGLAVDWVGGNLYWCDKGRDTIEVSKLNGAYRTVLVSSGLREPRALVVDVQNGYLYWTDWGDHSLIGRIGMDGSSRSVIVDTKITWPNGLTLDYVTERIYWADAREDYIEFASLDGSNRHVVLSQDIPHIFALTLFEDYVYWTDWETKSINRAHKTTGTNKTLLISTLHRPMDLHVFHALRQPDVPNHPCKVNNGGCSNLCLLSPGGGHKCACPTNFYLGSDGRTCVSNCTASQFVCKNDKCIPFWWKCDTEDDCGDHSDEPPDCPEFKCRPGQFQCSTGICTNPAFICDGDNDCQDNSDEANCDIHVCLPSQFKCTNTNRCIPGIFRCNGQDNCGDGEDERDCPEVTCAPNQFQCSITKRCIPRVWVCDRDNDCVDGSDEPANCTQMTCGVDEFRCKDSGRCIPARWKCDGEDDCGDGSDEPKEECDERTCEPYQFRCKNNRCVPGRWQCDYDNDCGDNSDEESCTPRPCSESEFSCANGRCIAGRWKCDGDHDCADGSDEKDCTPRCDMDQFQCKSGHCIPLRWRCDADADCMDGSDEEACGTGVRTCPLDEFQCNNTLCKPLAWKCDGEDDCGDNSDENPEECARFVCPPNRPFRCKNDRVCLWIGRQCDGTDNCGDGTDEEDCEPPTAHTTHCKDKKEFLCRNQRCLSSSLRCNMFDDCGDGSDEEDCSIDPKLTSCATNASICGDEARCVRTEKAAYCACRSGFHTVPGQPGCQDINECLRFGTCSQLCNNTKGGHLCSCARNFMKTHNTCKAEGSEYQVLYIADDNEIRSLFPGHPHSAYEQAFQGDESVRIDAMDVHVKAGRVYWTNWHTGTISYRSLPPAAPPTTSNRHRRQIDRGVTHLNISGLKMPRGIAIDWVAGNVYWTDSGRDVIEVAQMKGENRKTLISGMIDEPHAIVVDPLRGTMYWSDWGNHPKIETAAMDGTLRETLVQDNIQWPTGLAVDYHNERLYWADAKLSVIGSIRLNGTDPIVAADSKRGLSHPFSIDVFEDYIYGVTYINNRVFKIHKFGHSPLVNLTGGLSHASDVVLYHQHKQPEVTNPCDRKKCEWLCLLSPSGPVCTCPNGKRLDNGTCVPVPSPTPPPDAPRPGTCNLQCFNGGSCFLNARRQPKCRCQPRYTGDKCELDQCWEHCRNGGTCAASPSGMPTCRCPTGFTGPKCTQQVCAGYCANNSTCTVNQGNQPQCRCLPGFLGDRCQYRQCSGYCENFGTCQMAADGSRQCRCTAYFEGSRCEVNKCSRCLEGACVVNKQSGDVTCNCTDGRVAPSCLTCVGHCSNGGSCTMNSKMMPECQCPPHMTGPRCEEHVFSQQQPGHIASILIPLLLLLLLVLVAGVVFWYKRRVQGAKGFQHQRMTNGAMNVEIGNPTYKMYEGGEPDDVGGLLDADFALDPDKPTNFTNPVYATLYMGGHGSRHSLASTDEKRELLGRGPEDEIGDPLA

Row | Variant | effect of a mutation on the interaction
1 | R451A | disrupting interaction
2 | R470A | disrupting interaction
